Consider 11 molecules from paper PMC5680807 (mAbs, 2017).

Changes are numbered by the printed parent chain.

The target of assay [1] is basic species of AFD (VL Asp-30 isomerized to the cyclic intermediate form).
The target of assay [2] is human complement factor D (CFD) (Homo sapiens, UniProt P00746). The assay is described as follows: SPR. A general note: In SPR one partner is held on a chip, and binding of the other changes the refractive index at the surface.

In the case of “human complement factor D (CFD) (from UniProt P00746 26-253) (enzyme)”, the fold decrease in CFD-binding affinity against AFD in assay [1] was 2 fold.

B1: AFD.v9 (Fab, V domains shown)
VH: EVQLVQSGPELKKPGASVKVSCKASGYTFTNYGMNWVRQAPGQGLEWMGWINTYTGETTYAEDFKGRFVFSLDTSVSTAYLQISSLKAEDTAVYYCEREGGVNNWGQGTLVTVSS
VL: DIQVTQSPSSLSASVGDRVTITCITSTSIESDMSWYQQKPGKVPKLLISGGNTLRPGVPSRFSGSGSGTDFTLTISSLQPEDVATYYCLQSDSLPYTFGQGTKVEIK
B1: binding in assay [2] was characterised by a dissociation constant (Kd) of 30 pM. In other words, the picomolar range.

B2: AFD.v1 (Fab, V domains shown)
VH: B1 VH with E62D
VL: B1 VL with E30D, S31D, S34N
For B2, the Kd in assay [2] is ≤ 10 pM.

B3: AFD.v2 (Fab, V domains shown)
VH: B1 VH with E62D
VL: B1 VL with S28D, S31D, S34N
For the molecule B3, the Kd in assay [2] is ≤ 10 pM.

B4: AFD.v8 (Fab, V domains shown)
VH: B1 VH
VL: B1 VL with S34N
B4: the Kd in assay [2] was determined as 16.7 ± 4.4 pM.

B5: AFD.v3 (Fab, V domains shown)
VH: B1 VH with E62D
VL: B1 VL with S28D, E30D, S34N
In the case of B5, the Kd in assay [2] was ≤ 10 pM.

B6: AFD.v7 (Fab, V domains shown)
VH: B1 VH
VL: B1 VL with S28D, S34N, D92E
For B6, the Kd in assay [2] was ≤ 10 pM.

B7: AFD.v4 (Fab, V domains shown)
VH: B1 VH with E62D
VL: B1 VL with S28D, E30D, S31D, D32S, S34N
In assay [2], B7 yielded a Kd of 26 pM.

B8: AFD.v14 (Fab, V domains shown)
VH: B1 VH with N103S
VL: B1 VL with S34N
On to B8, for which the equilibrium dissociation constant (Kd) in assay [2] is 25.6 ± 6.3 pM.

B9: AFD.v6 (Fab, V domains shown)
VH: B1 VH
VL: B1 VL with S28D, S34N
With B9, the Kd in assay [2] was ≤ 10 pM.

B10: AFD.v5 (Fab, V domains shown)
VH: B1 VH with E62D
VL: B1 VL with E30D, D32S, S34N
The molecule B10 showed a Kd in assay [2] of 280 pM.

By Kd is commonly meant the equilibrium constant for the complex coming apart. Low readings indicate tighter binding, high ones weaker binding.
